# Measured values taken from the supplement of paper PMC10567573.
# B1: RTP4 (parent)
# chain: TYWEHWTSQGQVRMRLFGQRCQKC
# B2: KCNK9 (parent)
# chain: CFITLTTIGFGDYVALQTKGALQK
# Variants of: B1
# Test: protein stability index of a GFP-peptide fusion (GPS, HEK-293T) (PSI 1-6); higher = more stable
# Conditions: c terminus: a fixed tail appended
# 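Further: lentivirally expressed fusions sorted by FACS into six bins by GFP to DsRed ratio, PSI derived from sequencing read proportions per bin multiplied by bin number.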
row,Variant,protein stability index
1,TYWEHWTSQGQVRMRLFGQRCQEC [K23E],1.79
2,TYWEHWTSQGQVRMRLFGQRCQQC [K23Q],1.92
3,TYWEHWTSQGQVRMRLFGQRCQGC [K23G],1.15
4,TYWEHWTSQGQVRMRLFGQRCQAC [K23A],2.52
5,TYWEHWTSQGQVRMRLFGQRCQPC [K23P],1.65
6,TYWEHWTSQGQVRMRLFGQRCQYC [K23Y],1.67
7,TYWEHWTSQGQVRMRLFGQRCQSC [K23S],1.48
8,TYWEHWTSQGQVRMRLFGQRCQHC [K23H],1.1
9,TYWEHWTSQGQVRMRLFGQRCQDC [K23D],1.79
10,TYWEHWTSQGQVRMRLFGQRCQTC [K23T],1.07
11,TYWEHWTSQGQVRMRLFGQRCQCC [K23C],1.63
12,TYWEHWTSQGQVRMRLFGQRCQRC [K23R],1.4
13,TYWEHWTSQGQVRMRLFGVRCQKC [Q19V],2.23
14,TYWEHWTSQGQVRMRLFGYRCQKC [Q19Y],1.03
15,TYWEHWTSQGQVRMRLFGSRCQKC [Q19S],1.61
16,TYWEHWTSQGQVRMRLFGTRCQKC [Q19T],1.05
17,TYWEHWTSQGQVRMRLFGWRCQKC [Q19W],2.6
18,TYWEHWTSQGQVRMRLFGQRLQKC [C21L],2.4
19,TYWEHWTSQGQVRMRLFGQRFQKC [C21F],1.39
20,TYWEHWTSQGQVRMRLFGQRDQKC [C21D],2.75
21,TYWEHWTSQGQVRMRLFGQREQKC [C21E],2.46
22,TYWEHWTSQGQVRMRLFGQRIQKC [C21I],1.98
23,TYWEHWTSQGQVRMRLFGQRPQKC [C21P],3.25
24,TYWEHWTSQGQVRMRLFGQRMQKC [C21M],1.7
25,TYWEHWTSQGQVRMRLFGQRRQKC [C21R],2.4
26,TYWEHWTSQGQVRMRLFGQRYQKC [C21Y],1.81
27,TYWEHWTSQGQVRMRLFGQRAQKC [C21A],1.94

row,Variant,protein stability index
1,TYWEHWTSQGQVRMRLFGQRHQKC [C21H],2.23
2,TYWEHWTSQGQVRMRLFGQRGQKC [C21G],2.46
3,TYWEHWTSQGQVRMRLFGQRNQKC [C21N],2.15
4,TYWEHWTSQGQVRMRLFGQRKQKC [C21K],2.45
5,TYWEHWTSQGQVRMRLFGQRQQKC [C21Q],2.12
6,TYWEHWTSQGQVRMRLFGQRTQKC [C21T],1.78
7,TYWEHWTSQGQVRMRLFGQWCQKC [R20W],2.49
8,TYWEHWTSQGQVRMRLFGQPCQKC [R20P],1.78
9,TYWEHWTSQGQVRMRLFGQYCQKC [R20Y],1.97
10,TYWEHWTSQGQVRMRLFGQGCQKC [R20G],1.93
11,TYWEHWTSQGQVRMRLFGQNCQKC [R20N],1.34
12,TYWEHWTSQGQVRMRLFGQKCQKC [R20K],1.86
13,TYWEHWTSQGQVRMRLFGQSCQKC [R20S],1.65
14,TYWEHWTSQGQVRMRLFGQLCQKC [R20L],1.75
15,TYWEHWTSQGQVRMRLFGQTCQKC [R20T],2.22
16,TYWEHWTSQGQVRMRLFGQCCQKC [R20C],2.72
17,TYWEHWTSQGQVRMRLFGQECQKC [R20E],1.57
18,TYWEHWTSQGQVRMRLFGQHCQKC [R20H],1.63
19,TYWEHWTSQGQVRMRLFGQDCQKC [R20D],2.47
20,TYWEHWTSQGQVRMRLFGQFCQKC [R20F],1.82
21,TYWEHWTSQGQVRMRLFGQICQKC [R20I],1.03
22,TYWEHWTSQGQVRMRLFGQMCQKC [R20M],2.69
23,TYWEHWTSQGQVRMRLFGQQCQKC [R20Q],1.24
24,TYWEHWTSQGQVRMRLFGQRCQKD [C24D],2.53
25,TYWEHWTSQGQVRMRLFGQRCQKT [C24T],2.41
26,TYWEHWTSQGQVRMRLFGQRCQKR [C24R],2.29
27,TYWEHWTSQGQVRMRLFGQRCQKE [C24E],2.34

row,Variant,protein stability index
1,TYWEHWTSQGQVRMRLFGQRCQKN [C24N],2.22
2,TYWEHWTSQGQVRMRLFGQRCQKL [C24L],2.2
3,TYWEHWTSQGQVRMRLFGQRCQKK [C24K],3.24
4,TYWEHWTSQGQVRMRLFGQRCQKH [C24H],2.07
5,TYWEHWTSQGQVRMRLFGQRCQKY [C24Y],2.15
6,TYWEHWTSQGQVRMRLFGQRCQKP [C24P],1.69
7,TYWEHWTSQGQVRMRLFGQRCQKM [C24M],2.29
8,TYWEHWTSQGQVRMRLFGQRCQKQ [C24Q],2.28
9,TYWEHWTSQGQVRMRLFGQRCQKV [C24V],2.03
10,TYWEHWTSQGQVRMRLFGQRCQKW [C24W],1.54
11,TYWEHWTSQGQVRMRLFGQRCQKF [C24F],2.78
12,TYWEHWTSQGQVRMRLFGQRCQKG [C24G],2.2
13,TYWEHWTSQGQVRMRLFGQRCQKA [C24A],2.31
14,TYWEHWTSQGQVRMRLFGQRCKKC [Q22K],1.61
15,TYWEHWTSQGQVRMRLFGQRCEKC [Q22E],1.09
16,TYWEHWTSQGQVRMRLFGQRCRKC [Q22R],1.92
17,TYWEHWTSQGQVRMRLFGQRCPKC [Q22P],1.68
18,TYWEHWTSQGQVRMRLFGQRCWKC [Q22W],4.47
19,TYWEHWTSQGQVRMRLFGQRCLKC [Q22L],2.36
20,TYWEHWTSQGQVRMRLFGQRCAKC [Q22A],2.06
21,TYWEHWTSQGQVRMRLFGQRCNKC [Q22N],1.71
22,TYWEHWTSQGQVRMRLFGQRCVKC [Q22V],1.36
23,TYWEHWTSQGQVRMRLFGQRCIKC [Q22I],1.52
24,TYWEHWTSQGQVRMRLFGQRCTKC [Q22T],1.94
25,TYWEHWTSQGQVRMRLFGQRCHKC [Q22H],1.69
26,TYWEHWTSQGQVRMRLFGQRCSKC [Q22S],1.33

# Variants of: B2
# Test: as above
# Conditions: c terminus: a fixed tail appended
row,Variant,protein stability index
1,CFDTLTTIGFGDYVALQTKGALQK [I3D],2.82
2,CFWTLTTIGFGDYVALQTKGALQK [I3W],2.2
3,CFKTLTTIGFGDYVALQTKGALQK [I3K],2.06
4,CFRTLTTIGFGDYVALQTKGALQK [I3R],1.78
5,CFTTLTTIGFGDYVALQTKGALQK [I3T],1.87
6,CFHTLTTIGFGDYVALQTKGALQK [I3H],1.82
7,CFCTLTTIGFGDYVALQTKGALQK [I3C],2.68
8,CFNTLTTIGFGDYVALQTKGALQK [I3N],1.86
9,CFFTLTTIGFGDYVALQTKGALQK [I3F],1.52
10,CFATLTTIGFGDYVALQTKGALQK [I3A],2.03
11,CFLTLTTIGFGDYVALQTKGALQK [I3L],2.05
12,CFPTLTTIGFGDYVALQTKGALQK [I3P],2.68
13,CFSTLTTIGFGDYVALQTKGALQK [I3S],2.11
14,CFETLTTIGFGDYVALQTKGALQK [I3E],2.03
